± gives the uncertainty stated by the source.
Assay: protein stability index of a GFP-peptide fusion (yeast GPS) (PSI 1-4); higher = more stable; sorted into four equal gates, so the index is relative within each strain
Summary of the method: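 Yeast carrying a pooled library were grown to mid-log phase in leucine-free medium. Each library plasmid expresses Cherry and has a tiled 17-residue yeast protein peptide fused downstream of GFP. Cells were sorted into four equal gates by GFP/Cherry ratio, and plasmids from each gate were PCR-amplified, Illumina-sequenced and assigned to strains by barcode. Summing, across gates, the read frequency times the gate number gave each peptide's protein stability index.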

Sequence	protein stability index (doa10∆)	protein stability index (pdr5∆)	protein stability index (ubr1∆)	protein stability index (san1∆)
VAGSKCWAVRADVHFLD [RRP45]	2.07 ± 0.17	2.23 ± 0.14	2.26 ± 0.22	
VSYKDYSIFLENENILI [SMC1]	2.62 ± 0.13	2.81 ± 0.1	2.59 ± 0.086	
QSRRYNLRRHSDIVLDK [SIN4]	3.07 ± 0.05	3.21 ± 0.034	3.14 ± 0.035	3.131 ± 0.028
TTSYIKEQENITIQDLL [DPB4]	3.09 ± 0.19	2.83 ± 0.17	3.02 ± 0.27	2.86 ± 0.082
NKNIDIGLLNKSKSSLD [RPN2]	2.37 ± 0.071	2.22 ± 0.097	1.92 ± 0.05	1.76 ± 0.096
SASRAKNMPVIYNNIVS [RGR1]	2.42 ± 0.064	2.26 ± 0.064	2.34 ± 0.047	2.31 ± 0.053
DIGVLEEYARRLAEFKR [SMC4]	3.13 ± 0.12	3.38 ± 0.11	3.35 ± 0.077	2.74 ± 0.096
NRSWDHAYNITFNNQDK [RPO31]	2.75 ± 0.073	2.82 ± 0.061	2.97 ± 0.042	2.7 ± 0.071
SAVLLETTLGEMAEKID [PRP8]	1.12 ± 0.13	1.55 ± 0.098	1.65 ± 0.11	1.21 ± 0.2
ANGTFMDFGVDPSMDPE [RPN10]	2.87 ± 0.12	3.05 ± 0.091	2.87 ± 0.085	2.65 ± 0.12
VNQDSTYKYFEVILVDP [RPL15A]	3.21 ± 0.068	3.43 ± 0.082	3.19 ± 0.057	3.12 ± 0.048
PIMLRSKNCYLSEATES [RPB2]	1.23 ± 0.075	1.46 ± 0.11	1.14 ± 0.061	1.1 ± 0.15
ILNDSLIYHLKDCAEVD [IRR1]	2.05 ± 0.056	2.28 ± 0.06	1.71 ± 0.046	2.02 ± 0.09
EDEGEERESSGAKDAEK [RPC17]	2.93 ± 0.18	3.38 ± 0.28	3.65 ± 0.16	
NREAATKEVESNIITKS [DIS3]	2.79 ± 0.11	2.94 ± 0.064	2.87 ± 0.089	2.79 ± 0.074
RQCFREKANDIGFNKFR [RPS29A]	3.32 ± 0.15	3.3 ± 0.13	2.92 ± 0.098	3 ± 0.098
AATNETFENINSLFYLK [IRR1]	2.43 ± 0.25	2.37 ± 0.21		2.71 ± 0.17
FLDGIYVSHKGFIVEDM [RPL9B]	2.24 ± 0.13	2.86 ± 0.074	2.66 ± 0.13	2.74 ± 0.087
TMMANFEEWIKMATDNK [BRN1]	3.19 ± 0.12	3.16 ± 0.11	3.35 ± 0.1	3.08 ± 0.1
ESIASSNTYKEERSNNL [MCD1]	3.03 ± 0.13	3.37 ± 0.14	3.39 ± 0.075	3.25 ± 0.06
LQNIVMDCTKEEEATMT [YIL149C/MLP2]	3.4 ± 0.12	3.3 ± 0.1	2.98 ± 0.089	3.31 ± 0.086
QKSGRPVKSIRARLKGK [RPO21]	2.17 ± 0.12	2.23 ± 0.12	1.77 ± 0.24	2.34 ± 0.2
GLFEKSTVSANHSNNDI [BRN1]	3.12 ± 0.14	2.95 ± 0.11	3.11 ± 0.12	3.19 ± 0.08
SSDDLQNCWSLINDSYI [SSN8]	1.94 ± 0.068	2.03 ± 0.081	1.74 ± 0.064	1.53 ± 0.11
RYNVEKVKRLMDFLEED [NSL1]	2.08 ± 0.098	1.26 ± 0.16	2.25 ± 0.19	
LQQKHELDTASRILKAQ [YGR119C/NUP57]	2.73 ± 0.045	2.83 ± 0.046	3.03 ± 0.034	2.53 ± 0.052
AHNPELERYVKRCMDDL [RPO31]	3.33 ± 0.062	3.45 ± 0.062	3.35 ± 0.04	3.41 ± 0.037

From the supplement of paper PMC9732359
